In patent US20170037103A1 (University of California, published 2017):
Bridges are numbered along the chain shown (N, C = ends). Where no end group is shown, it is not given here. [ ]: non-standard residue; d: D form. The star is where a group is joined. PalS‑X = 3,5-bis(methyl-S-cysteinyl)-1-(methyl-S-palmityl)-benzene joining the two Cys; Ida^NHPal = iminodiacetic acid mono-N-palmityl amide, CCCCCCCCCCCCCCCCNC(=O)CNCC(=O)*; dPEG12 = 40-amino-4,7,10,13,16,19,22,25,28,31,34,37-dodecaoxotetradecanoic acid; Oic = O=C(O)[C@@H]1C[C@@H]2CCCC[C@@H]2N1; Palmitoyl = CCCCCCCCCCCCCCCC(=O)*; Tic = O=C(O)[C@@H]1Cc2ccccc2CN1; Aib = CC(C)(N)C(=O)O; Ahx = NCCCCCC(=O)O

B1: NM3 (peptide)
peptide: Palmitoyl-[Aib]FLFRPRN-NH2
SMILES: CCCCCCCCCCCCCCCC(=O)NC(C)(C)C(=O)N[C@@H](Cc1ccccc1)C(=O)N[C@@H](CC(C)C)C(=O)N[C@@H](Cc1ccccc1)C(=O)N[C@@H](CCCNC(=N)N)C(=O)N1CCC[C@H]1C(=O)N[C@@H](CCCNC(=N)N)C(=O)N[C@@H](CC(N)=O)C(N)=O
B2: NM5 (peptide)
peptide: [Aib]FLFRPRN[Aib]-NH2
modifications: N-terminus assumed
SMILES: CC(C)C[C@H](NC(=O)[C@H](Cc1ccccc1)NC(=O)C(C)(C)N)C(=O)N[C@@H](Cc1ccccc1)C(=O)N[C@@H](CCCNC(=N)N)C(=O)N1CCC[C@H]1C(=O)N[C@@H](CCCNC(=N)N)C(=O)N[C@@H](CC(N)=O)C(=O)NC(C)(C)C(N)=O
B3: NM2 (peptide)
peptide: [Aib]FLFRPRN-NH2
modifications: N-terminus assumed
SMILES: CC(C)C[C@H](NC(=O)[C@H](Cc1ccccc1)NC(=O)C(C)(C)N)C(=O)N[C@@H](Cc1ccccc1)C(=O)N[C@@H](CCCNC(=N)N)C(=O)N1CCC[C@H]1C(=O)N[C@@H](CCCNC(=N)N)C(=O)N[C@@H](CC(N)=O)C(N)=O

Experiments:
[1] = target: T1, human neuromedin U receptor NMUR1 (human, UniProt Q9HB89 1-426); assay: cell-based or functional assay
T1 sequence (looked up): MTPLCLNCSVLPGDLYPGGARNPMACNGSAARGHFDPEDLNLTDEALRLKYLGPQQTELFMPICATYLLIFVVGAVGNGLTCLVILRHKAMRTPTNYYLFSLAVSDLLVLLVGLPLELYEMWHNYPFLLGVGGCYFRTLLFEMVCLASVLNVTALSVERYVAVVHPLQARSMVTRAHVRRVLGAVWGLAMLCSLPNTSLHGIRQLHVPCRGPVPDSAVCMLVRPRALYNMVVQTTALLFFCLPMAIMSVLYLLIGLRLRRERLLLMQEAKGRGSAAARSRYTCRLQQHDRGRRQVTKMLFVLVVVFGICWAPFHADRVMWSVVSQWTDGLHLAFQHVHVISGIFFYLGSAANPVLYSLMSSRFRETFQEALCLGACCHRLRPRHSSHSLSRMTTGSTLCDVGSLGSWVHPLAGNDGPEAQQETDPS

[2] = target: T2, human neuromedin U receptor NMUR2 (human, UniProt Q9GZQ4 1-415); assay: told from the calcium mobilization assay on HEK293 cells expressing the receptor; no direct binding assay
T2 construct: whole, on cells; also called neuromedin U 2 receptor; HEK-NMU2
Description: To test whether neuromedin U can be modified/derivatized to yield truncated bioactive compound(s) that may be useful as therapeutics, we synthesized a small library (25 peptides) of hNMU analogs utilizing various stabilization protocols, including: cyclization, lipidation, introduction of α,α-disubstituted and N-methylated amino acids, retro-inverso-approach, and combination of such (see Table 1). Subsequently all analogues were tested against human neuromedin U receptors (NMUR1 and NMUR2) in calcium mobilization assay (collaboration with Dr Gary Willars, University of Leicester, UK).
HEK293 cells expressing either the neuromedin U 1 receptor or neuromedin U 2 receptor (HEK-NMU1 and HEK-NMU2 respectively) were grown to approximately 90% confluence in ELISA strip plates (96-well format) pre-coated with poly-D-lysine (0.1% w/v) and loaded for 45 min at 37° C. with 2 iM fluo-4-AM in Krebs'-HEPES buffer with bovine serum albumin (KHB-BSA; composition: 10 mM HEPES; 4.2 mM NaHCO₃; 11.7 mM D-glucose; 1.18 mM MgSO₄.7H₂O; 1.18 mM KH₂PO₄; 4.69 mM KCl; 118 mM NaCl; 1.3 mM CaCl₂.2H₂O; 0.1% (w/v) BSA; pH 7.4). Monolayers were then washed and equilibrated for 5 min at 37° C. in 100 il KHB-BSA for subsequent recording of fluorescence as an index of intracellular [Ca²⁺] ([Ca²⁺]ᵢ) using a microplate reader (NOVOstar; BMG LABTECH, Aylesbury, U.K.). […]

T2 sequence (Q9GZQ4 whole entry): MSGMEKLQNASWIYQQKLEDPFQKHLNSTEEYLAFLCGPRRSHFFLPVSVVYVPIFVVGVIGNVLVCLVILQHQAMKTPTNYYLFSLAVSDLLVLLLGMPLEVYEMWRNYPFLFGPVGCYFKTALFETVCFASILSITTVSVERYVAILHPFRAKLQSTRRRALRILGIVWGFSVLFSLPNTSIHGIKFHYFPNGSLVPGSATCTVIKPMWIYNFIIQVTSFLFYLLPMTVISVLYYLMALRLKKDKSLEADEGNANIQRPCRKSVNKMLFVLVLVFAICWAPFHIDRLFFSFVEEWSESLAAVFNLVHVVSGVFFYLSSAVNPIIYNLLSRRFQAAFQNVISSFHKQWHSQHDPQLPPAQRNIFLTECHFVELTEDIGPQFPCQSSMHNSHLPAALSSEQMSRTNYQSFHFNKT

Binder	NMUR1 EC50 [nM], calcium mobilization assay [1] [nM]	binding result [2]
{Ida^NHPal}-[Aib]FLFRPRN-NH2 [NM4A]	7.41	
{Nic-Ida^NHPal}-[Aib]FLFRPRN-NH2 [NM4A-Nic]	43.6	
FRVDEEFQSPFASQSRGYFLFRPRN-NH2 [human neuromedin U]	1.12	
C[Ahx]FLFRPRN[Ahx]C-NH2 (cysteine pairing not given here) [NM8]	186	
C[Ahx]FLFR[Tic]RN[Ahx]C-NH2 (cysteine pairing not given here) [NM10]	3980	
B1	331	
C[Ahx]FLFR[Oic]RN[Ahx]C-NH2 (cysteine pairing not given here) [NM9]	1410	
{Palmitoyl-dPEG12}-[Aib]FLFRPRN[Aib]-NH2 [NM7]	170	
B2	58.9	
C[Ahx]FLFR[Tic]RN[Ahx]C-NH2 (linker 1-11 via PalS‑X) [NM16]	3980	
Ac-FLFRPRN-NH2 [NM1]	0.58	
Palmitoyl-[dPEG12][Aib]FLFRPRN-NH2 [NM4]	1.51	binds
B3	0.63	
